We go through 1 substance from PMC10876425.

For assay [1], the target named is Reaction-centre light-harvesting 1 (RC-LH1) complex from Rhodobacter sphaeroides, carotenoid-less (from the ΔcrtB strain) (Rhodobacter sphaeroides) (UniProt P0C0Y8). Put plainly: FRET or BRET; fluorescence lifetime microscopy (TCSPC) of LH2 emission at 857 ± 3 nm after excitation at 485 nm; intact DOPC proteoliposomes (LH2 only, 2:1, 1:1, 0.5:1 LH2:RC-LH1); E = 1 - τDA/τD; values are averages for the whole system. For orientation: In BRET a luciferase serves as donor, and the signal depends on an acceptor being close.

Assay [2] concerns the target Light-harvesting 2 (LH2) complex from Rhodobacter sphaeroides (Rhodobacter sphaeroides). The description is as above.

Turning to “Light-harvesting 2 (LH2) complex from Rhodobacter sphaeroides”, in assay [1], the LH2 fluorescence lifetime in proteoliposomes (0.5:1 LH2:RC-LH1) came out at 0.37 ns, the LH2 fluorescence lifetime in proteoliposomes (1:1 LH2:RC-LH1) amounted to 0.35 ns, the LH2 fluorescence lifetime in proteoliposomes (2:1 LH2:RC-LH1) came out at 0.43 ns and the LH2→RC-LH1 energy transfer efficiency (0.5:1 LH2:RC-LH1) came out at 49%. For the same substance, in assay [1], the LH2→RC-LH1 energy transfer efficiency (1:1 LH2:RC-LH1) turned out to be 51% and the LH2→RC-LH1 energy transfer efficiency (2:1 LH2:RC-LH1) stood at 40%. This substance also had an LH2 fluorescence lifetime in LH2-only proteoliposomes in assay [2] of 0.72 ns.
